± gives the standard deviation of the averaged measurements.

The text below walks through data of the supplement of paper PMC10724198.
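Note: PSI is a weighted mean of sequencing reads over stability bins, variants kept only with over 10 reads, mCherry proximal and sfGFP distal, peptide attached via GGGS linker.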

For the data set, the system named is Saccharomyces cerevisiae. Nature of the data set: protein stability index of tFT-peptide fusion (C-terminal peptide) (PSI (0-1 scale)); higher = more stable (slower turnover). The conditions noted are these: genetic background: wild type; temperature: 30 C. Here is the method: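 Multiplexed protein stability (MPS) profiling in S. cerevisiae. Random 12-aa peptides (tFT-X12 library) are fused to the C-terminus of a sfGFP-mCherry tandem fluorescent timer, after mCherry and a GGGS linker. Cells are FACS-sorted into 8 mCherry/sfGFP bins and deep-sequenced. The protein stability index (PSI) is the read-weighted bin average, scaled from 0 (unstable) to 1 (stable). Only peptides with >10 reads are reported; cells were grown at 30 °C in SC-His with glucose.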
GGALNGVGNGEL displayed a protein stability index of 0.67 ± 0.053.
Take GGARGLLRGLLG: the protein stability index was found to be 0.755 ± 0.085.
As to GGCDVCGVQWIG, the protein stability index came to 0.73 ± 0.054.
Turning to GGCGAKWLSGGG, the protein stability index was 0.64 ± 0.025.
The result for GGCSGGNGGCDG reads 0.678 ± 0.028.
The result for GGDDKREPGGAR reads 0.6603 ± 0.0025.
As for GGDFYEGVKNGK, the protein stability index was determined as 0.714 ± 0.11.
Turning to GGELVKGWGSRV, the protein stability index is 0.678 ± 0.072.
Turning to GGETGGRWHKKQ, the protein stability index was determined as 0.672 ± 0.069.
As to GGEWGDRRKSGV, the protein stability index was 0.647 ± 0.059.
In the case of GGFCRLRYLVCP it was 0.544 ± 0.039.
GGFTAPLVLSPR yielded a protein stability index of 0.686 ± 0.071.
For GGGAADGGGGRG, the protein stability index was 0.646 ± 0.059.
As to GGGAGERMRDGR, the protein stability index is 0.67 ± 0.026.
For the sequence GGGARSPSGCAN, the protein stability index was found to be 0.712 ± 0.019.
GGGERFGLGGRM showed a protein stability index of 0.659 ± 0.049.
GGGFVGGTVAAV came in with a protein stability index of 0.725 ± 0.011.
GGGGAAGWGAVG came in with a protein stability index of 0.688 ± 0.015.
The result for GGGGALGRVWPG reads 0.685 ± 0.02; that for GGGGAVRAWGLR, 0.736 ± 0.019.
With GGGGEAWGGLRW, the protein stability index amounted to 0.775 ± 0.055.
In the case of GGGGERGGVKRG it was 0.663 ± 0.02; in that of GGGGGASMSGTP, 0.687 ± 0.017; in that of GGGGGCGVAGGV, 0.71 ± 0.026.
In the case of GGGGGFAPGVTG it was 0.698 ± 0.046; in that of GGGGGFGVVRVG, 0.651 ± 0.032; in that of GGGGGGFRVVVG, 0.705 ± 0.03.
Regarding GGGGGGGEWVGG, the protein stability index was determined as 0.656 ± 0.05.
GGGGGGGGGGGG returned a protein stability index of 0.65 ± 0.04.
GGGGGGGGRRPG displayed a protein stability index of 0.616 ± 0.0097.
GGGGGGGGSSCA returned a protein stability index of 0.685 ± 0.067.
In turn, GGGGGGGGVVVR showed a protein stability index of 0.686 ± 0.016.
In the case of GGGGGGLVGQGD, the protein stability index came to 0.673 ± 0.017.
The result for GGGGGGWGGGVG reads 0.665 ± 0.021; that for GGGGGNAGSHLG, 0.673 ± 0.018; that for GGGGGRGGVVVR, 0.682 ± 0.014.
Turning to GGGGGRSSPGGS, the protein stability index is 0.678 ± 0.073.
On to GGGGGWGGAGGV, for which the protein stability index is 0.737 ± 0.048.
The result for GGGGLKVVGGGS reads 0.661 ± 0.032.
Consider GGGGVGSSGARV, for which the protein stability index worked out at 0.644 ± 0.068.
The sequence GGGGVGTGCQRR gave a protein stability index of 0.668 ± 0.037.
For the sequence GGGGVLGVVRVG, the protein stability index was determined as 0.62 ± 0.033.
The result for GGGGVWVSWCGW reads 0.679 ± 0.013; that for GGGHGGVGGGMG, 0.612 ± 0.057.
The result for GGGLSRVEGFGP reads 0.6681 ± 0.0038; that for GGGLVGVEGGWG, 0.6732 ± 0.0057; that for GGGPGGWGGRGR, 0.6449 ± 0.0052.
The result for GGGPGRCAGGGR reads 0.669 ± 0.024; that for GGGRGEVEGHSG, 0.709 ± 0.013.
Turning to GGGRSASGGWGC, the protein stability index was 0.698 ± 0.024.
With GGGSGGREPGGS, the protein stability index was determined as 0.726 ± 0.027.
As to GGGSGKSGNLYS, the protein stability index was 0.687 ± 0.06.
In the case of GGGVGGGGVEYG it was 0.638 ± 0.067; in that of GGGVGGGRAWWR, 0.699 ± 0.037.
The sequence GGGVGGWGTWVV had a protein stability index of 0.715 ± 0.1.
In the case of GGGVGRGGVEYG, the protein stability index worked out at 0.609 ± 0.01.
In the case of GGGVPGGLGREG it was 0.677 ± 0.043; in that of GGGVTRMQQRNG, 0.6774 ± 0.002.
In turn, GGGVWGGVFFRL gave a protein stability index of 0.647 ± 0.014.
GGGVWWGGWGHW gave a protein stability index of 0.73 ± 0.061.
Regarding GGGWGERGRGGS, the protein stability index turned out to be 0.729 ± 0.037.
GGIGYRRQAAQA yielded a protein stability index of 0.673 ± 0.068.
GGKEEGAGRRGV returned a protein stability index of 0.69 ± 0.059.
Consider GGKREGEACRQE, for which the protein stability index stood at 0.662 ± 0.13.
As for GGLSELGSGIKC, the protein stability index was 0.673 ± 0.0083.
GGLVPPLEGLVR registered a protein stability index of 0.677 ± 0.037.
On to GGLWPWGRVVCW, for which the protein stability index was determined as 0.687 ± 0.078.
Consider GGMWGVGRGSVG, for which the protein stability index was found to be 0.657 ± 0.068.
Regarding GGPSLLEGGAWA, the protein stability index was found to be 0.6436 ± 0.0023.
Sequence GGREWWLSDGTV registered a protein stability index of 0.75 ± 0.033.
GGRGGGGEMGGR registered a protein stability index of 0.651 ± 0.04.
In the case of GGRGRGGEMGGR, the protein stability index was 0.722 ± 0.033.
GGRGVEVAGKGW yielded a protein stability index of 0.686 ± 0.08.
Sequence GGRGWVGEMGGR gave a protein stability index of 0.784 ± 0.053.
The sequence GGRIITIWNRKM registered a protein stability index of 0.578 ± 0.069.
In turn, GGRRHQRARLPL registered a protein stability index of 0.605 ± 0.018.
The result for GGRRRPVPQGPR reads 0.649 ± 0.091.
